Assays:
[1] = target: T1, crab-eating macaque CDCP1 with N-terminal c-Myc tag (expression vector GS02), on crab-eating macaque … (crab-eating macaque (Macaca …, UniProt Q9H5V8 30-836 (human entry))); test: flow cytometry on crab-eating macaque CDCP1-expressing CHO-K1 cells
T1 chain: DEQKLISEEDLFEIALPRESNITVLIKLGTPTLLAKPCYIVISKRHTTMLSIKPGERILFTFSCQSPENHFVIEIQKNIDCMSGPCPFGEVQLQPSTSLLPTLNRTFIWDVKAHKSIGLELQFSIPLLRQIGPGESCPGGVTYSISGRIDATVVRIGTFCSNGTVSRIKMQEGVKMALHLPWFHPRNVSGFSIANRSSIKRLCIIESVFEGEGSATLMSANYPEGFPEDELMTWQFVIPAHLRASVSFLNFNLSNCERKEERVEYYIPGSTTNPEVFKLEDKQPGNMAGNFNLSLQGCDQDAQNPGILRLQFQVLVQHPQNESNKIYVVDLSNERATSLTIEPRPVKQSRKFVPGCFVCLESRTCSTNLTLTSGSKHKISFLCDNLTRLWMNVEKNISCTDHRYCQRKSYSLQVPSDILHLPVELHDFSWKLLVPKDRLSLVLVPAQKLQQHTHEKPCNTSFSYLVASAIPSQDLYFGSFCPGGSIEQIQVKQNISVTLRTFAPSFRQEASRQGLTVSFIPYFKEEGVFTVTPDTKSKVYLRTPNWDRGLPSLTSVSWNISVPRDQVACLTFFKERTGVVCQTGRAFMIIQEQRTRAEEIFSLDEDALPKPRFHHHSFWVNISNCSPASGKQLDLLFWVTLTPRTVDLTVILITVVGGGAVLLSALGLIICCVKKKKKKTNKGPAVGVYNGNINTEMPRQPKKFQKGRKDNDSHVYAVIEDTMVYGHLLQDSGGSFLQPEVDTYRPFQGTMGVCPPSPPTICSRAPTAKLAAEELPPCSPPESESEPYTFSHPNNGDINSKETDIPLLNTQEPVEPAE
Text: The hCDCP1-expressing CHO-K1 cells and the crab-eating macaque CDCP1-expressing CHO-K1 cells were exfoliated and dispersed using 0.25% trypsin/EDTA (Nacalai Tesque, Inc.), and were then reacted with various concentrations of individual mouse-human chimeric antibodies, namely, mh12A041HCori/LCori, mh14A025HCori/LCori, mh14A043HCori/LCori, mh14A055, mh14A063HCori/LCori, and mh14A091. Thereafter, the binding property of the antibodies was observed by flow cytometry (FIG. 9). As a result, these 6 antibodies all reacted with the crab-eating macaque CDCP1, and in particular, the 5 antibodies other than mh14A055 reacted with both the human CDCP1 and the crab-eating macaque CDCP1 at the same levels.

[2] = target: T2, full-length hCDCP1 with N-terminal c-Myc tag (expression vector GS01), on Ba/F3-hCDCP1 cells or … (human, UniProt Q9H5V8 30-836); test: flow cytometry on untreated Ba/F3-hCDCP1 cells (comparison of FIG. 8)
T2 construct: also called human CDCP1; hCDCP1 forced expression cells
T2 sequence: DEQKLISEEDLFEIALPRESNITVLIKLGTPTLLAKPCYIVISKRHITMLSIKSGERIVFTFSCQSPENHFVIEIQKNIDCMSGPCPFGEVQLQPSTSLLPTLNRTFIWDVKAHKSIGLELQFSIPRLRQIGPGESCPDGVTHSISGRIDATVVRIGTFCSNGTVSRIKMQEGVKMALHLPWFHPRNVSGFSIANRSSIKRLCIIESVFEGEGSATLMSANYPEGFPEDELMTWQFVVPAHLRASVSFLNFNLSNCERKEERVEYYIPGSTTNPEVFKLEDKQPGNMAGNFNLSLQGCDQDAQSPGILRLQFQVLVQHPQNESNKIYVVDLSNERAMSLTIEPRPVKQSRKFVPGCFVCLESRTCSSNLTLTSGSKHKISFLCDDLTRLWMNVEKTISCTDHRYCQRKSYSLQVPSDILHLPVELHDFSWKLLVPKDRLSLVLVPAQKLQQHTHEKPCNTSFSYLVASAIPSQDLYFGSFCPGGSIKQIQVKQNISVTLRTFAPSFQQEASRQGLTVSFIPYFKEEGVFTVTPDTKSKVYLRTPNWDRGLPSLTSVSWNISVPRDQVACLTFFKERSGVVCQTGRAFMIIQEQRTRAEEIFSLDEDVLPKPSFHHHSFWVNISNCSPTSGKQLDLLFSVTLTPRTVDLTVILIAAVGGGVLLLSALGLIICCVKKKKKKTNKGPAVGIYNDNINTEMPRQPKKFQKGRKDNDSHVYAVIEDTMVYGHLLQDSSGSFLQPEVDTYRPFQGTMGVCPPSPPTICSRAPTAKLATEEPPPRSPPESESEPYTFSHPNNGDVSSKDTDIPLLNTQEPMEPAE
Protocol: In order to investigate whether the obtained anti-hCDCP1 mouse-human chimeric antibodies bind to the N-terminal side of the serine protease cleavage site of the hCDCP1 molecules or bind to the transmembrane region side, […] the technique mentioned in the previous section. The following anti-hCDCP1 mouse-human chimeric antibody clones were evaluated: [0259] mh12A041HCori/LCori, mh14A025HCori/LCori, mh14A043HCori/LCori, mh14A055, mh14A063HCori/LCori, and mh14A091.
[…] It was confirmed by the same Western blotting as that mentioned in the previous section that the full-length hCDCP1 disappeared and only the cleaved hCDCP1 was present in the above-treated Ba/F3-CDCP1 cells. With respect to these cells, a dilution series of anti-hCDCP1 mouse-human chimeric antibodies from 5 μg/mL to 5 ng/mL was prepared, and was then reacted at 4° C. for 30 minutes. As a negative control, a similar dilution series of anti-RS virus antibodies described in the later section was prepared as a non-specific human IgG, and was then reacted at 4° C. for 30 minutes.

B1: mh14A091 (antibody, human IgG1, kappa, V domains shown)
VH: EVQLQESGAELARPGASVKLSCKASGYTFTSYWMQWVKQRPGQGLEWIGAIYPGDGDTRYTQKFKGKATLTADKSSSTAYMQLSSLASEDSAVYYCAGYDAPWFAYWGQGTLVTVSS
VL: NIVLTQSPASLAVSLGQRATISCRASESVDSYGNSFMHWYQQKPGQPPKLLIYLASNLESGVPARFSGSGSRTDFTLTIDPVEADDAATYYCQQNNEDPWTFGGGTKLEIKR
notes: mouse-human chimeric antibody of 14A091, human IgG1/kappa constant regions
**Q.** What does the source list for B1?
**A.** binding result [1]: binds; binding result [2]: binds

B2: mh14A055 (antibody, human IgG1, kappa, V domains shown)
VH: EVQLQESGPGLVAPSQSLSITCTVSGFSLTGYGVNWVRQPPGKGLEWLGMIWGDGSTDYNSALKSRLSISKDNSKSQVFLKMNSLQTDDTARYYCARDGYDGAMDYWGQGTSVTVSS
VL: not shown
notes: mouse-human chimeric antibody of 14A055, human IgG1/kappa constant regions
**Q.** Does B2 bind [1]?
**A.** binds

**Q.** Does B2 bind [2]?
**A.** binds
